This note sets out measurements from paper PMC12453405.

Common to all, as to assay: quartz crystal microbalance (QCM); purified N protein injected first onto the coated quartz crystal, then GST, then Grb2-GST; PBS pH 7.4, flow 60 μl/min; Tris-HCl pH 8.0 between injections; binding ratio = amplitude difference of Grb2-GST before and after binding over the amplitude of N protein
The target in assay [1] is wPDCoV-N (His-fused PDCoV N protein) (porcine deltacoronavirus (PDCoV)).
Assay [2] deals with mPDCoV-N (P61A/P292A) (porcine deltacoronavirus (PDCoV)).
The target in assay [3] is PEDV-N (His-fused N protein of Alphacoronavirus PEDV) (PEDV).

“Grb2-GST (pGEX-Grb2) (from UniProt B6E241 1-217) (natural protein)”: the binding ratio was 31.6% in assay [1], 19.7% in assay [2] and 23.5% in assay [3].
